US20200231974A1 (published 2020)

T1: HCMV pp65 peptide on HLA-B*07:02 (human)
T1 peptide: TPRVTGGGAM

B1: HBD4.1.S9-5.E3 (SEQ0717 and SEQ0718) (TCR, V domains shown)
Valpha: SQQGEEDPQALSIQEGENATMNCSYKTSINNLQWYRQNSGRGLVHLILIRSNEREKHSGRLRVTLDTSKKSSSLLITASRAADTASYFCATELRMDSSYKLIFGSGTRLLVRP
Vbeta: DTGVSQNPRHKITKRGQNVTFRCDPISEHNRLYWYRQTLGQGPEFLTYFQNEAQLEKSRLLSDRFSAERPKGSFSTLEIQRTEQGDSAMYLCASSLREGRLPETQYFGPGTRLLVL
B2: HBD4.1.S9-1.D5 (SEQ0707 and SEQ0708) (TCR, V domains shown)
Valpha: DAKTTQPPSMDCAEGRAANLPCNHSTISGNEYVYWYRQIHSQGPQYIIHGLKNNETNEMASLIITEDRKSSTLILPHATLRDTAVYYCIVRDRYNTGNQFYFGTGTSLTVIP
Vbeta: EAQVTQNPRYLITVTGKKLTVTCSQNMNHEYMSWYRQDPGLGLRQIYYSMNVEVTDKGDVPEGYKVSRKEKRNFPLILESPSPNQTSLYFCASSLGPSSYEQYFGPGTRLTVT
B3: HBD4.1.S9-7.C5 (SEQ0715 and SEQ0716) (TCR, V domains shown)
Valpha: AQSVAQPEDQVNVAEGNPLTVKCTYSVSGNPYLFWYVQYPNRGLQFLLKYITGDNLVKGSYGFEAEFNKSQTSFHLKKPSALVSDSALYFCAVRSRMDSSYKLIFGSGTRLLVRP
Vbeta: DTGVSQNPRHKITKRGQNVTFRCDPISEHNRLYWYRQTLGQGPEFLTYFQNEAQLEKSRLLSDRFSAERPKGSFSTLEIQRTEQGDSAMYLCASSPPDAAYNEQFFGPGTRLTVL
B4: HBD4.1.S9-2.A6 (SEQ0709 and SEQ0710) (TCR, V domains shown)
Valpha: AQKITQTQPGMFVQEKEAVTLDCTYDTSDQSYGLFWYKQPSSGEMIFLIYQGSYDEQNATEGRYSLNFQKARKSANLVISASQLGDSAMYFCAMREGMDSSYKLIFGSGTRLLVRP
Vbeta: DTGVSQNPRHKITKRGQNVTFRCDPISEHNRLYWYRQTLGQGPEFLTYFQNEAQLEKSRLLSDRFSAERPKGSFSTLEIQRTEQGDSAMYLCASSLHDRGARTEAFFGQGTRLTVV
B5: HBD4.1.S9-7.E5 (SEQ0713 and SEQ0714) (TCR, V domains shown)
Valpha: AQKITQTQPGMFVQEKEAVTLDCTYDTSDQSYGLFWYKQPSSGEMIFLIYQGSYDEQNATEGRYSLNFQKARKSANLVISASQLGDSAMYFCAMRPYTGGFKTIFGAGTRLFVKA
Vbeta: EAQVTQNPRYLITVTGKKLTVTCSQNMNHEYMSWYRQDPGLGLRQIYYSMNVEVTDKGDVPEGYKVSRKEKRNFPLILESPSPNQTSLYFCASSTSPSTARYGYTFGSGTRLTVV

Target: T1, HCMV pp65 peptide on HLA-B*07:02
Assay: multimer staining

Binding result, recognises:
B1
B2
B3
B4
B5
